These results are taken from paper PMC4947441.

Substrate in the data set: CCCC(=O)OP(=O)(O)O
As to the kind of experiment: purified protein. The format is biochemical, Listeria monocytogenes. The settings on record: 500 µM CoA, 100 mM Tris pH 7.5, 25 °C.

B1: Ptb (phosphotransbutyrylase, LmPtb) (Listeria monocytogenes EGD-e) (protein)
chain: MTKSRFFSDVAETSSFVFAVAGADDEVVLETIRLALKQKLGKFLLFGKKEDKTLTANESVTWIQTDTAEAAAQGAILAVKNKEADILVKGFIPTATLMHHVLKKENGLRTDQLLSQIAIFDIPTYHKPLLITDCAMNVAPKTKEKIAITENALAVAHQIGITNPKIALLSAVEEVTAKMPSTLEAQEVVQHFGNQISVSGPLALDVAISKEAALHKGITDSSAGEADILIAPNIETGNALYKSLVYFAGAKVGSAVVGAKVPIVISSRNDSPENKLASFILTVRLVEK
As usually defined, the Km is the substrate concentration at which the rate is half of its maximum. Regarding B1, the Michaelis constant (Km) came to 1040 µM.
